Laboratory results published in the supplement of paper PMC10126150.
± gives the standard deviation of the averaged measurements.

tested on: ATP; assay: switch fluorescence ratio, 500 uM ATP over buffer (Cy3 cluster intensity, sum of 5 cycles each) (fold (ratio)); higher = stronger signal-on switching upon ATP binding; sequences stand for … in TCGTCGGCAGCGTCAGATGTGTATAAGAGACAGTTTTTTTTTTTTTTTTTTTTTTTTT…TC; details: aptamer strand: ATP DNA aptamer (quencher-CACCTGGGGGAGTATTGCGGAGGAAGG + anchor), 100 nM annealed; ATP concentration: 500 uM
Summary of the method: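 For every switch-domain sequence, the fluorescence ratio is the mean of per-cluster values, each being summed target-cycle Cy3 intensity over summed buffer-cycle Cy3 intensity. Clusters outside 100-1000 RFU were excluded. On a modified Illumina MiSeq flow-cell, the Cy3-labelled switching-strand clusters were annealed to 100 nM quencher-labelled ATP aptamer, imaged in selection buffer and then after 15 min with 500 uM ATP at 22 °C. Five such cycles were run, with NaOH stripping and re-annealing between them.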
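Also: ATP exposure 15 min at 22 °C before imaging.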

CAGTCAGCGG and CAGTCATGGG are within error of each other in switch fluorescence ratio: 1.01 ± 0.02 for the first, 1 ± 0.035 for the second.

Going from CAGTCATTCG to CAGTCCGGCA, the switch fluorescence ratio rises from 0.99 ± 0.016 to 1.05 ± 0.021.

First: CAGTCCGGTC
Second: CAGTGAGGGT
The switch fluorescence ratio of the first is higher: 1.06 ± 0.014 for the first, 0.981 ± 0.019 for the second.

CAGTGCACTC and CAGTGCGTGG are within error of each other in switch fluorescence ratio: 0.9918 ± 0.0014 for the first, 0.988 ± 0.017 for the second.

CAGTGCGTGT and CAGTGGCCTA are within error of each other in switch fluorescence ratio: 1 ± 0.03 for the first, 0.99094 ± 0.00045 for the second.

CAGTGGGAGA and CAGTGGGGCA are within error of each other in switch fluorescence ratio: 1.025 ± 0.0088 for the first, 1.03 ± 0.053 for the second.

CAGTGGGGGC and CAGTGGTCGT are within error of each other in switch fluorescence ratio: 1.05 ± 0.087 for the first, 0.999 ± 0.011 for the second.

CAGTGTGGTG and CAGTTAAAGG are within error of each other in switch fluorescence ratio: 1 ± 0.049 for the first, 1.01 ± 0.017 for the second.

CAGTTACACG and CAGTTAGGGG are within error of each other in switch fluorescence ratio: 0.995 ± 0.023 for the first, 1.02 ± 0.013 for the second.

CAGTTCATGA and CAGTTCTCGT are within error of each other in switch fluorescence ratio: 1.01 ± 0.027 for the first, 0.969 ± 0.018 for the second.

CAGTTGATGC and CAGTTGCTGA are within error of each other in switch fluorescence ratio: 1.01 ± 0.096 for the first, 0.999 ± 0.011 for the second.

CAGTTGGGGT and CAGTTGTAAA are within error of each other in switch fluorescence ratio: 0.997 ± 0.022 for the first, 0.9699 ± 0.0067 for the second.

Going from CAGTTGTTGG to CAGTTTTATC, the switch fluorescence ratio rises from 0.984 ± 0.011 to 1.012 ± 0.0039.

CAGTTTTCGG and CAGTTTTGAG are within error of each other in switch fluorescence ratio: 1 ± 0.021 for the first, 0.9917 ± 0.0014 for the second.

First: CATAAAAGAT
Second: CATAAAGATG
The switch fluorescence ratio of the first is lower: 1.01 ± 0.017 for the first, 1.053 ± 0.01 for the second.

First: CATAACCGGT
Second: CATAATAC
The switch fluorescence ratio of the first is lower: 1.01 ± 0.027 for the first, 1.82 ± 0.4 for the second.

CATAATTTTT and CATACAATTG are within error of each other in switch fluorescence ratio: 0.991 ± 0.062 for the first, 1.06 ± 0.091 for the second.

Going from CATACACAGG to CATACATCCG, the switch fluorescence ratio falls from 1.26 ± 0.078 to 1.07 ± 0.038.

CATAGACGGG and CATAGATAGG are within error of each other in switch fluorescence ratio: 1.03 ± 0.081 for the first, 0.992 ± 0.011 for the second.

Compared with CATAGGATCG, CATAGTGTTT is higher in switch fluorescence ratio: 0.949 ± 0.038 for the first, 1.01 ± 0.012 for the second.

Compared with CATAGTTTGG, CATATAATTC is lower in switch fluorescence ratio: 1.07 ± 0.034 for the first, 0.975 ± 0.042 for the second.

First: CATATAGGGC
Second: CATATATCGG
The switch fluorescence ratio of the first is lower: 0.985 ± 0.02 for the first, 1.02 ± 0.012 for the second.

CATATATTGG and CATATCACAT are the same in switch fluorescence ratio: 1.02 ± 0.05 for the first, 1.024 ± 0.0062 for the second.

CATATCGAAA and CATATGGGGG are within error of each other in switch fluorescence ratio: 1.013 ± 0.0033 for the first, 1.02 ± 0.046 for the second.

CATATGTTTT and CATATTATCA are within error of each other in switch fluorescence ratio: 1 ± 0.035 for the first, 1.02 ± 0.024 for the second.

CATATTCAAT and CATATTTGCC are within error of each other in switch fluorescence ratio: 1 ± 0.015 for the first, 1.03 ± 0.059 for the second.

Compared with CATCAAGGCA, CATCAATCTC is higher in switch fluorescence ratio: 1.01 ± 0.019 for the first, 1.12 ± 0.02 for the second.

CATCAGGAGG and CATCATGTTT are within error of each other in switch fluorescence ratio: 0.961 ± 0.035 for the first, 0.984 ± 0.015 for the second.

Going from CATCATTGGC to CATCCGGCCG, the switch fluorescence ratio rises from 0.974 ± 0.092 to 1.194 ± 0.0019.

CATCCGGGGG and CATCGGAGGG are within error of each other in switch fluorescence ratio: 1.56 ± 0.73 for the first, 1.02 ± 0.029 for the second.

CATCGGCTGA and CATCGGTCTT are within error of each other in switch fluorescence ratio: 0.992 ± 0.023 for the first, 0.958 ± 0.039 for the second.

First: CATCGTAAAT
Second: CATCGTGTTA
The switch fluorescence ratio of the first is higher: 1.06 ± 0.016 for the first, 1.01 ± 0.022 for the second.

CATCGTTTTT and CATCTAAAGA are within error of each other in switch fluorescence ratio: 1.02 ± 0.02 for the first, 1.005 ± 0.0067 for the second.

CATCTAAGGG and CATCTAGGGC are within error of each other in switch fluorescence ratio: 0.983 ± 0.042 for the first, 1.04 ± 0.028 for the second.

Going from CATCTCCCTG to CATCTGGGCC, the switch fluorescence ratio falls from 1.06 ± 0.016 to 1.01 ± 0.022.

CATCTTTGCA and CATGACGTGT are within error of each other in switch fluorescence ratio: 0.9943 ± 0.0063 for the first, 1.01 ± 0.012 for the second.

First: CATGACTCCC
Second: CATGAGGTCG
The switch fluorescence ratio of the first is higher: 2.01 ± 0.13 for the first, 0.989 ± 0.047 for the second.

CATGAGGTTA and CATGATAAT are within error of each other in switch fluorescence ratio: 0.9855 ± 0.0094 for the first, 0.998 ± 0.022 for the second.

CATGATGGGG and CATGATTGAT are within error of each other in switch fluorescence ratio: 0.96 ± 0.027 for the first, 0.976 ± 0.029 for the second.

First: CATGCAGGGT
Second: CATGCCAAGC
The switch fluorescence ratio of the first is lower: 1.04 ± 0.016 for the first, 1.15 ± 0.045 for the second.

Going from CATGCGGCTA to CATGCGGTTG, the switch fluorescence ratio falls from 1.05 ± 0.044 to 0.978 ± 0.013.

Compared with CATGCGTTG, CATGCTATTC is higher in switch fluorescence ratio: 0.9898 ± 0.0016 for the first, 1.17 ± 0.049 for the second.

Going from CATGGAGATT to CATGGATGAA, the switch fluorescence ratio rises from 0.9866 ± 0.0092 to 1.04 ± 0.007.

CATGGATGCC and CATGGCACTT are within error of each other in switch fluorescence ratio: 0.998 ± 0.022 for the first, 1.009 ± 0.0041 for the second.

CATGGCTTAT and CATGGGAAGG are within error of each other in switch fluorescence ratio: 1.01 ± 0.038 for the first, 0.997 ± 0.034 for the second.

CATGGGAAGT and CATGGGACGT are within error of each other in switch fluorescence ratio: 1.01 ± 0.035 for the first, 0.988 ± 0.071 for the second.

Going from CATGGGAGTT to CATGGGGATT, the switch fluorescence ratio rises from 0.978 ± 0.025 to 1.017 ± 0.0057.

CATGGGGCGG and CATGGGGGAC are within error of each other in switch fluorescence ratio: 1 ± 0.052 for the first, 0.995 ± 0.031 for the second.

CATGGGGGCG and CATGGGGGTC are within error of each other in switch fluorescence ratio: 1.01 ± 0.078 for the first, 1 ± 0.036 for the second.

CATGGGGTCT and CATGGGGTTT are within error of each other in switch fluorescence ratio: 1.03 ± 0.05 for the first, 1.01 ± 0.018 for the second.
